The values below come from PMC3760305, “Mimicking Protein–Protein Interactions through Peptide–Peptide Interactions: HIV-1 gp120 and CXCR4” (Frontiers in Immunology, 2013).

A word on the Kd: it is the concentration at which binding is half-saturated.

One assay concerns the target CXCR4 mimetic peptide CX4-M1. Description: direct ELISA. The note with it: parent: 1; read off a plot. In general terms: In an ELISA, binding on a coated surface is turned into a signal by an enzyme label.
For the substance V3 loop peptide V3_(HxBc2) N325A, the ratio to parent was determined as 1.3. Consider V3 loop peptide V3_(HxBc2) R308A, for which the ratio to parent stood at 0.57. In the case of V3 loop peptide V3_(HxBc2) T319A, the ratio to parent turned out to be 0.63. Same read-out and setting: next, V3 loop peptide V3_(HxBc2) V318A: 0.41; V3 loop peptide V3_(HxBc2) R306A: 0.78. Same read-out and setting: next, V3 loop peptide V3_(HxBc2) I323A: 0.53; V3 loop peptide V3_(HxBc2) G324A: 1.4. Still for that read-out and setting: the same measure for V3 loop peptide V3_(HxBc2) R311A: 1.4. On to V3 loop peptide V3_(HxBc2) I307A, for which the ratio to parent came out at 0.18. Still for that read-out and setting: next, V3 loop peptide V3_(HxBc2) P313A: 0.67; V3 loop peptide V3_(HxBc2) G321A: 0.7; V3 loop peptide V3_(HxBc2) G312A: 0.82. V3 loop peptide V3_(HxBc2) R315A: the ratio to parent came to 0.46. On the same count and under the same terms, next, V3 loop peptide V3_(HxBc2) K322A: 2.1. The same measure, in the same setting: the same measure for V3 loop peptide V3_(HxBc2) M326A: 1.3; for V3 loop peptide V3_(HxBc2) I320A: 0.16; for V3 loop peptide V3_(HxBc2) G314A: 0.86. Consider V3 loop peptide V3_(HxBc2) Q310A, for which the ratio to parent came out at 1. For V3 loop peptide V3_(HxBc2) F317A, the ratio to parent is 0.16.

With V3 loop peptide V3_(HxBc2) I309A, the ratio to parent worked out at 0.13.

The next assay has as its target CXCR4 mimetic peptide CX4-M1. Put plainly: SPR; Biacore X100, Biotin CAPture Kit; CX4-M1 (2 μM) bound to streptavidin; gp120 8–0.5 nM; HBS-N (10 mM HEPES, 150 mM NaCl, pH 7.4), 0.05% Tween 20, 2.5 mM MgCl2; no sCD4.
Settings: not given
Background: Surface plasmon resonance follows binding to a sensor surface in real time, without labels.
Substance Gp120_(IIIB) (natural protein) showed a Kd of 100 nM. The same measure, in the same setting: the same measure for gp120MN (natural protein): 700 nM; for “gp120_(HxBc2) (from UniProt P04578 33-511) (natural protein)”: 200 nM.

Another assay concerns the target CXCR4 mimetic peptide CX4-M1. Description: SPR; Biacore X100, Biotin CAPture Kit; CX4-M1 (2 μM) bound to streptavidin; V3 loop peptides 5–0.3 μM; HBS-N (10 mM HEPES, 150 mM NaCl, pH 7.4), 0.05% Tween 20, 100 mM MgCl2; no sCD4.
Settings: not given
V3 loop peptide V3_(HxBc2) displayed a Kd of 300 nM.
